Among the data in the RNAGym collection of RNA variant scans (doi:10.7554/elife.80360) are self-cleavage values, retold here.

The chains are these.
B1: HDV Ribozyme (parent)
chain: GGCCGGCAUGGUCCCAGCCUCCUCGCUGGCGCCGGCUGGGCAACAUUCCGAGGGGACCGUCCCCUCGGUAAUGGCGAAUGGGACCCA

In this data set the parent is B1. Put plainly: self-cleavage, relative activity (ratio to wild type); higher = more cleavage; co-transcriptional.
On to U37C A42G, for which the self-cleavage was found to be 0.795. With G50C C64U the figure was 0.728; with G55U U69A, 0.869; with G11U G74A, 0.114.

On to G28A C49A, for which the self-cleavage came out at 0.111.

For G40C U79A, the self-cleavage came to 0.19.

Consider G34U C36U, for which the self-cleavage stood at 0.0482.

Regarding C33A G54U, the self-cleavage turned out to be 0.198. Take U69A G76U: the self-cleavage is 0.95. The figure for C3G G59U is 0.899; for G31C A51U it is 0.212; for C22U G81C it is 0.237. G52A U69C: the self-cleavage worked out at 1.21. With C3U C41G, the self-cleavage worked out at 0.499. On to C33G G82C, for which the self-cleavage amounted to 0.0405. In the case of C36A G40U, the self-cleavage was determined as 0.161. The figure for C63U U79G is 0.54; for C19U A56C it is 0.0936. As for G38A G53U, the self-cleavage worked out at 0.0567.

With C4G A70G, the self-cleavage came out at 0.59. Take C22A U60C: the self-cleavage stood at 0.424.

For G10C C14A, the self-cleavage was 0.237.

With C32G C58A, the self-cleavage stood at 0.189. The figure for A16U U37C is 0.929; for C19A C58U it is 0.168. In the case of G10U A77U, the self-cleavage came out at 0.174. Turning to C22U G74A, the self-cleavage came to 0.113.

Consider C18U G31C, for which the self-cleavage stood at 0.0326. Turning to C48G G54U, the self-cleavage amounted to 0.726. Regarding C14U U79A, the self-cleavage was 1.02. Turning to G2C G28U, the self-cleavage turned out to be 0.014. The figure for C64A A83U is 0.511. The figure for G5U G80C is 0.0811. Take C36A A78G: the self-cleavage amounted to 0.0652. As for U69C G81C, the self-cleavage was determined as 0.231.

Regarding C19A G59C, the self-cleavage was 0.04.

In the case of C3G G28U, the self-cleavage amounted to 0.0357. With A16C G68A the figure was 0.649; with C36U C66U, 0.741. In the case of C7G A45C, the self-cleavage is 0. With G17C G68A the figure was 0.297; with G5C A77G, 0.0475.

As to G1U C3A, the self-cleavage was found to be 0.654. With U9G A83C the figure was 0.554; with U37C G73A, 0.493; with U9A C13A, 0.119. With C22U C41U the figure was 0.656. With C3U G73C, the self-cleavage amounted to 0.304.

On to G2C A77G, for which the self-cleavage stood at 0.0346. On to C66G G67C, for which the self-cleavage amounted to 1.01. On to C63U C75G, for which the self-cleavage came to 0.0755.

On to C24G G28A, for which the self-cleavage was found to be 0.148.

With U65A G67C, the self-cleavage is 0.705.

Regarding G39A U69A, the self-cleavage is 0.443. As to U27A U47G, the self-cleavage came out at 0.89. Consider G1C C58A, for which the self-cleavage came to 0.297. On to C3A G29C, for which the self-cleavage came to 0. Consider G10A G82U, for which the self-cleavage turned out to be 0.36. Consider A70C G76A, for which the self-cleavage is 0.96. The figure for U79G C85U is 0.705. For the variant G2U U69C, the self-cleavage is 0. As for G10U G67A, the self-cleavage worked out at 0.611. The figure for G25A C86U is 0.248; for C32U G73U it is 0.267.

G6C C57A: the self-cleavage amounted to 0.346.

As to C21G G28A, the self-cleavage is 0.0744. The figure for C21U G50C is 0.115; for U27C G31C it is 0; for C32U G50C it is 0.764.

Take C36G G53U: the self-cleavage was determined as 0.148. In the case of C30A A45G, the self-cleavage came out at 0.391. Consider C13A G67U, for which the self-cleavage turned out to be 0.17.

On to A51C A77C, for which the self-cleavage turned out to be 0.266. With C36G C75G the figure was 0.0773; with C36G C75U, 0.233; with C64U C84G, 0.869. With U9A C30A the figure was 0.732. On to G31A C41A, for which the self-cleavage came out at 0.273. For the variant C26A G76U, the self-cleavage amounted to 1.05.

Take G31A G59C: the self-cleavage was 0.348.

Take G11C C33U: the self-cleavage is 0.256. The figure for C48G A83U is 0.554. Turning to G34U G82U, the self-cleavage was 0.0631. With G31A G39U the figure was 0.0898. As for U47G G82U, the self-cleavage was determined as 0.123. G17C G53C: the self-cleavage was determined as 0.178. Consider U37C G67A, for which the self-cleavage came out at 1. With C33U C44U the figure was 0.543; with C15U G76C, 1.03; with C62U G76U, 1.06. With C32G A83G the figure was 0; with G1U C30G, 0.282.

Regarding C26U G50A, the self-cleavage was 1.07. On to C19A C26G, for which the self-cleavage was found to be 0.312. The figure for C14U G38C is 0.158; for G1A G25A it is 0.0739. The figure for C21U C26U is 0.646; for C44G G55C it is 0.898.

As to U60A C84U, the self-cleavage is 0.793. Turning to G17U G39C, the self-cleavage came out at 0.0755. With U47G G55A the figure was 0.939; with G1A U60A, 0.185. With U12G C30U, the self-cleavage was 0.375. The figure for C33G C63A is 0.0475; for G6U A77U it is 0.158; for G35A C86G it is 0.739. The figure for G35C C86U is 0.415; for U72G C85U it is 0.644. With C15A U47A, the self-cleavage came to 0.522.

On to U12G C21A, for which the self-cleavage turned out to be 0. For C33A C64G, the self-cleavage was determined as 0.289. With C3A A77G the figure was 0.313. In the case of C30A G67U, the self-cleavage amounted to 0.339. The figure for C14G G68A is 0.431; for G50U G59C it is 1.14. Regarding G17C C49U, the self-cleavage stood at 0.332. With C49A G82C the figure was 0.222; with C62A C85A, 0.767. With G34C U60G the figure was 0.0978; with U12C G31C, 0.123. For G28A C58A, the self-cleavage stood at 0.0639.

With C21U C84U, the self-cleavage is 0.0923.

With A51C G67U, the self-cleavage came out at 0.939. C7G G35U: the self-cleavage stood at 0.0811.

For C15A A42C, the self-cleavage is 0.122. Take G10U C21A: the self-cleavage was determined as 0.0332. On to C4G C85A, for which the self-cleavage is 0.435.

As for U23C G59C, the self-cleavage was determined as 1.26. With U27C G34A the figure was 0.289. Consider C33A G80C, for which the self-cleavage is 0.16. Consider G6U C63G, for which the self-cleavage turned out to be 0.268. With A51U U65A the figure was 0.966. As to C3U U9C, the self-cleavage came to 0.95. As for G10A G35U, the self-cleavage is 0.499. With G29A G67U, the self-cleavage is 0.231. The figure for U12A G74A is 0.128. The figure for C4A G29A is 0.0244; for U9A G31U it is 0.208. Turning to G2A A78U, the self-cleavage is 0.0674. The figure for C48A G82U is 0.496. Take G31C A56U: the self-cleavage was 0.305. With U12A C44G the figure was 0.166; with U37G A42G, 0.0723; with G55U A71U, 0.786. The figure for G10C C48U is 0.911; for G28U G67A it is 0.164. On to A8C G80A, for which the self-cleavage was 0.326.

For G25U G28U, the self-cleavage was 0.0652. With C49A A77U the figure was 0.404. In the case of C3A A45C, the self-cleavage was found to be 0.0482. With A16C G54C the figure was 0.87; with U37G C44A, 0.0791. For U46G G76C, the self-cleavage amounted to 0.95. Turning to A71G G81A, the self-cleavage came to 0.475.

Regarding C24G U47G, the self-cleavage worked out at 0.0978. In the case of C22U A71G, the self-cleavage came to 0.506. With A45G A70G the figure was 0.997; with C13G C57G, 0.107; with C32G C86A, 0.18.

U46C G54U: the self-cleavage is 0.786. With A8U U12G the figure was 0.594; with G28A A70G, 0.032.

Regarding G2A G10C, the self-cleavage came to 0.105.

For the variant G6A A56G, the self-cleavage came out at 0.848.

With A78C U79C, the self-cleavage turned out to be 0.153. As to G1C C57G, the self-cleavage came out at 0.222.

C18G C61G: the self-cleavage came out at 0.219.
